The target of test [1] is T1, human tissue factor (human, UniProt P13726 33-251, limits assumed).
T1 construct: construct not described; also called TF
Put plainly: phage ELISA, Fab on phage, competition with antigen in solution. A general note: In an ELISA, binding on a coated surface is turned into a signal by an enzyme label.

Test [2] concerns the target T1, human tissue factor. Put plainly: phage ELISA, solution competition: Fab-phage incubated with serially diluted TF, unbound phage captured on TF-coated wells; IC50 used as affinity estimate.

Positions count from the first letter of the chain named. Names and notes keep the numbering of the source.

Drawing on patent US20110237779A1 (Genentech, published 2011), this text covers IC50 for 24 molecules.

The IC50 is the point on the concentration scale where inhibition reaches its midpoint.

B1: D3 direct hypervariable region graft on the acceptor human consensus framework (Fab displayed on phage) (Fab, V domains shown)
VH: EVQLVESGGGLVQPGGSLRLSCAASGFNIKDYYMHWVRQAPGKGLEWVGWIDPENGNTIYDPKFQDRFTISADTSKNTAYLQMNSLRAEDTAVYYCARDTAAYFDYWGQGTLVTVSS
VL: DIQMTQSPSSLSASVGDRVTITCKASRDIKSYLSWYQQKPGKAPKLLIYYATSLADGVPSRFSGSGSGTDFTLTISSLQPEDFATYYCLQHGESPFTFGQGTKVEIK
notes: Monovalent Fab-g3 phage display: light chain, and VH-CH1 followed by the minor phage coat protein P3; Kabat numbering; No framework changes; also called D3 grafted variant; D3 graft
For the molecule B1, the figures for the IC50 in the test with human tissue factor [1] and in the test with human tissue factor [2] were 20 nM and 19 nM, respectively.

B2: D3 library clone, CDR-L2 YAPSLAD (Fab, V domains shown)
VH: B1 VH
VL: B1 VL with T52P
notes: Change against the D3 direct graft (Kabat): VL T52P; copies: 1 + 1
Take B2: the 50% inhibitory concentration (IC50) with human tissue factor [2] was 4 nM.

B3: D3 library clone, CDR-L3 LQDGESPFT, I58F, N82aI, D95N (Fab, V domains shown)
VH: B1 VH with I59F, N84I, D99N
VL: B1 VL with H91D
notes: Changes against the D3 direct graft (Kabat): VL H91D; VH I58F, N82aI, D95N; copies: 1 + 1
As for B3, in the test with human tissue factor [2], the concentration for half-maximal inhibition (IC50) was 8 nM.

B4: D3 library clone, CDR-L3 LSDGSSPFT (Fab, V domains shown)
VH: B1 VH
VL: B1 VL with Q90S, H91D, E93S
notes: Changes against the D3 direct graft (Kabat): VL Q90S, H91D, E93S; copies: 1 + 1
As for B4, the concentration for half-maximal inhibition (IC50) in the test with human tissue factor [2] was 15 nM.

B5: D3 library clone, CDR-L2 YATGETD (Fab, V domains shown)
VH: B1 VH
VL: B1 VL with S53G, L54E, A55T
notes: Changes against the D3 direct graft (Kabat): VL S53G, L54E, A55T; Siblings 2; copies: 1 + 1
With B5, the concentration for half-maximal inhibition (IC50) with human tissue factor [2] is 16 nM.

B6: D3 library clone, CDR-L2 YEGSGKR (Fab, V domains shown)
VH: B1 VH
VL: B1 VL with A51E, T52G, L54G, A55K, D56R
notes: Changes against the D3 direct graft (Kabat): VL A51E, T52G, L54G, A55K, D56R; Siblings 8; copies: 1 + 1
Turning to B6, the IC50 with human tissue factor [2] is 12 nM.

B7: D3 library clone, CDR-L2 YVPWTAD (Fab, V domains shown)
VH: B1 VH
VL: B1 VL with A51V, T52P, S53W, L54T
notes: Changes against the D3 direct graft (Kabat): VL A51V, T52P, S53W, L54T; copies: 1 + 1
B7: in the test with human tissue factor [2], the IC50 is 10 nM.

B8: D3 library clone, CDR-L1 KGSGYIKHFVS (Fab, V domains shown)
VH: B1 VH
VL: B1 VL with A25G, R27G, D28Y, S31H, Y32F, L33V
notes: Changes against the D3 direct graft (Kabat): VL A25G, R27G, D28Y, S31H, Y32F, L33V; Siblings 2; copies: 1 + 1
In the case of B8, the IC50 in the test with human tissue factor [2] is 9 nM.

B9: D3 library clone, CDR-L2 YTAGPSD (Fab, V domains shown)
VH: B1 VH
VL: B1 VL with A51T, T52A, S53G, L54P, A55S
notes: Changes against the D3 direct graft (Kabat): VL A51T, T52A, S53G, L54P, A55S; copies: 1 + 1
On to B9, for which the IC50 with human tissue factor [2] is 16 nM.

B10: D3 library clone, CDR-L2 YTTGPVD (Fab, V domains shown)
VH: B1 VH
VL: B1 VL with A51T, S53G, L54P, A55V
notes: Changes against the D3 direct graft (Kabat): VL A51T, S53G, L54P, A55V; copies: 1 + 1
B10: the IC50 with human tissue factor [2] was 21 nM.

B11: D3 library clone, CDR-L2 YESGPAD (Fab, V domains shown)
VH: B1 VH
VL: B1 VL with A51E, T52S, S53G, L54P
notes: Changes against the D3 direct graft (Kabat): VL A51E, T52S, S53G, L54P; Siblings 2; copies: 1 + 1
On to B11, for which, in the test with human tissue factor [2], the IC50 was 8 nM.

B12: D3 library clone, CDR-L2 YEPGLAD (Fab, V domains shown)
VH: B1 VH
VL: B1 VL with A51E, T52P, S53G
notes: Changes against the D3 direct graft (Kabat): VL A51E, T52P, S53G; copies: 1 + 1
As for B12, the half-inhibitory concentration (IC50) with human tissue factor [2] was 7 nM.

B13: D3 library clone, CDR-L3 LQDGESPFT (Fab, V domains shown)
VH: B1 VH
VL: B1 VL with H91D
notes: Change against the D3 direct graft (Kabat): VL H91D; Siblings 5; copies: 1 + 1
As for B13, the IC50 with human tissue factor [2] is 13 nM.

B14: D3 library clone, CDR-L2 RGTSLFE, VL K24E, D28V, Y32F (Fab, V domains shown)
VH: B1 VH
VL: B1 VL with K24E, D28V, Y32F, Y50R, A51G, A55F, D56E
notes: Changes against the D3 direct graft (Kabat): VL K24E, D28V, Y32F, Y50R, A51G, A55F, D56E; copies: 1 + 1
On to B14, for which the half-inhibitory concentration (IC50) in the test with human tissue factor [2] was 10 nM.

B15: D3 library clone, CDR-L2 DAIGLAD (Fab, V domains shown)
VH: B1 VH
VL: B1 VL with Y50D, T52I, S53G
notes: Changes against the D3 direct graft (Kabat): VL Y50D, T52I, S53G; copies: 1 + 1
In the case of B15, the IC50 with human tissue factor [2] was 17 nM.

B16: D3 library clone, CDR-L2 YAPGPAD (Fab, V domains shown)
VH: B1 VH
VL: B1 VL with T52P, S53G, L54P
notes: Changes against the D3 direct graft (Kabat): VL T52P, S53G, L54P; copies: 1 + 1
In the case of B16, the IC50 with human tissue factor [2] was 10 nM.

B17: D3 library clone, CDR-L1 NASLVINRWLS (Fab, V domains shown)
VH: B1 VH
VL: B1 VL with K24N, R27L, D28V, K30N, S31R, Y32W
notes: Changes against the D3 direct graft (Kabat): VL K24N, R27L, D28V, K30N, S31R, Y32W; copies: 1 + 1
Turning to B17, the IC50 in the test with human tissue factor [2] is 16 nM.

B18: D3 library clone, CDR-L2 YETGEPE (Fab, V domains shown)
VH: B1 VH
VL: B1 VL with A51E, S53G, L54E, A55P, D56E
notes: Changes against the D3 direct graft (Kabat): VL A51E, S53G, L54E, A55P, D56E; copies: 1 + 1
In the case of B18, the 50% inhibitory concentration (IC50) in the test with human tissue factor [2] is 11 nM.

B19: D3 library clone, CDR-L1 KGQRVLNSWLS (Fab, V domains shown)
VH: B1 VH
VL: B1 VL with A25G, S26Q, D28V, I29L, K30N, Y32W
notes: Changes against the D3 direct graft (Kabat): VL A25G, S26Q, D28V, I29L, K30N, Y32W; copies: 1 + 1
B19: in the test with human tissue factor [2], the 50% inhibitory concentration (IC50) was 21 nM.

B20: D3 library clone, CDR-L2 YAPGLAD (Fab, V domains shown)
VH: B1 VH
VL: B1 VL with T52P, S53G
notes: Changes against the D3 direct graft (Kabat): VL T52P, S53G; Siblings 2; copies: 1 + 1
Regarding B20, in the test with human tissue factor [2], the concentration for half-maximal inhibition (IC50) was 8 nM.

B21: D3 library clone, CDR-L1 KGSRDTTSFVS (Fab, V domains shown)
VH: B1 VH
VL: B1 VL with A25G, I29T, K30T, Y32F, L33V
notes: Changes against the D3 direct graft (Kabat): VL A25G, I29T, K30T, Y32F, L33V; copies: 1 + 1
Consider B21, for which the IC50 in the test with human tissue factor [2] is 19 nM.

B22: D3 library clone, CDR-L2 YETGPTD (Fab, V domains shown)
VH: B1 VH
VL: B1 VL with A51E, S53G, L54P, A55T
notes: Changes against the D3 direct graft (Kabat): VL A51E, S53G, L54P, A55T; copies: 1 + 1
For B22, in the test with human tissue factor [2], the IC50 is 9 nM.

B23: D3 library clone, CDR-L2 YETGWAE (Fab, V domains shown)
VH: B1 VH
VL: B1 VL with A51E, S53G, L54W, D56E
notes: Changes against the D3 direct graft (Kabat): VL A51E, S53G, L54W, D56E; copies: 1 + 1
With B23, in the test with human tissue factor [2], the IC50 is 10 nM.

B24: D3 library clone, CDR-L2 YAPRRAR (Fab, V domains shown)
VH: B1 VH
VL: B1 VL with T52P, S53R, L54R, D56R
notes: Changes against the D3 direct graft (Kabat): VL T52P, S53R, L54R, D56R; Siblings 2; copies: 1 + 1
Turning to B24, the IC50 in the test with human tissue factor [2] is 11 nM.
